For assay [1], the target named is T1, P-selectin expressed on the surface of CHO cells (CHO:P-selectin cell line) (UniProt P16109 42-830, limits assumed).
T1 construct: whole, on cells; also called P-selectin expressing CHO cells
T1 sequence (looked up): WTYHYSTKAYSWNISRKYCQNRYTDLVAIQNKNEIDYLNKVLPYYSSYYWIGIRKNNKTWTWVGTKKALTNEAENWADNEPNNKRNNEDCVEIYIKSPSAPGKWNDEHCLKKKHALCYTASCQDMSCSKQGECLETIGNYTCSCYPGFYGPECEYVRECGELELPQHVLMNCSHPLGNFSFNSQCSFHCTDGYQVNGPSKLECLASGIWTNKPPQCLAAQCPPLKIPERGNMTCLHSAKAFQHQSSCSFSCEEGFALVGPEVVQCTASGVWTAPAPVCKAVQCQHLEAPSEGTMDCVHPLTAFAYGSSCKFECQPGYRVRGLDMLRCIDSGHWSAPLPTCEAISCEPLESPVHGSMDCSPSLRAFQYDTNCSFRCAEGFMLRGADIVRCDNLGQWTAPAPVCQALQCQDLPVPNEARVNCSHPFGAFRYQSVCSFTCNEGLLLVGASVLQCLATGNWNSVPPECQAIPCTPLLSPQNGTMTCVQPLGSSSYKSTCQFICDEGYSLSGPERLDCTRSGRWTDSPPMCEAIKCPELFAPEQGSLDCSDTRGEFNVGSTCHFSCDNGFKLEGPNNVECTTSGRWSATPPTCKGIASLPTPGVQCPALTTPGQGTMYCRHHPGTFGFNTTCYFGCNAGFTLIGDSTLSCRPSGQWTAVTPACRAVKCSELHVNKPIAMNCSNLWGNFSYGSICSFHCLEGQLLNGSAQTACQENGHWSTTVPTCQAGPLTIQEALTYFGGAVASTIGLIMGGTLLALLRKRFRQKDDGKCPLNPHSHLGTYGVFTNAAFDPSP
The assay is described as follows: adhesion of 3H-thymidine-labelled CHO:P-selectin cells to transfected COS cells. As to the method:
COS cells were co-transfected with the pMT21:PL85 plasmid of Example 1 and the pEA.3/4FT plasmid of Example 2 by the same procedure used in the initial stages of screening. As controls, COS cells were transfected with pMT21:PL85 alone, or with pEA.3/4FT alone, or with a similar plasmid containing no insert ("mock"). 24 hours post-transfection, the transfected cells were trypsinized and distributed into Costar 6-well tissue culture plates. CHO:P-selectin cells were labeled for 16 hours with ^3H-thymidine using known methods and preincubated at 0.5×10^6 cells/ml for 30 minutes at 4° C. in α medium containing 1% BSA (control); α medium containing 1% BSA, 5 mM EDTA and 5 mM EGTA; α medium containing 1% BSA and 10 μg/ml of a neutralizing anti P-selectin monoclonal antibody; and α medium containing 1% BSA and a non-neutralizing anti-P-selectin monoclonal antibody. The preincubated cells were then added to the wells containing the transfected COS cells. After a 10 minute incubation, unbound cells were removed by 4 changes of medium. The bound CHO:P-selectin cells were released by trypsinization and quantified by scintillation counting.
Likewise, incubation with neutralizing anti-P-selectin antibody also eliminated specific binding, whereas non-neutralizing antibody had no effect. […]

For assay [2], the target named is T2, E-selectin expressed on CHO cells (CHO:E-selectin) (UniProt P16581 22-610, limits assumed).
T2 construct: whole, on cells; also called E-selectin expressing CHO cells; CHO cells which express E-selectin
T2 sequence (looked up): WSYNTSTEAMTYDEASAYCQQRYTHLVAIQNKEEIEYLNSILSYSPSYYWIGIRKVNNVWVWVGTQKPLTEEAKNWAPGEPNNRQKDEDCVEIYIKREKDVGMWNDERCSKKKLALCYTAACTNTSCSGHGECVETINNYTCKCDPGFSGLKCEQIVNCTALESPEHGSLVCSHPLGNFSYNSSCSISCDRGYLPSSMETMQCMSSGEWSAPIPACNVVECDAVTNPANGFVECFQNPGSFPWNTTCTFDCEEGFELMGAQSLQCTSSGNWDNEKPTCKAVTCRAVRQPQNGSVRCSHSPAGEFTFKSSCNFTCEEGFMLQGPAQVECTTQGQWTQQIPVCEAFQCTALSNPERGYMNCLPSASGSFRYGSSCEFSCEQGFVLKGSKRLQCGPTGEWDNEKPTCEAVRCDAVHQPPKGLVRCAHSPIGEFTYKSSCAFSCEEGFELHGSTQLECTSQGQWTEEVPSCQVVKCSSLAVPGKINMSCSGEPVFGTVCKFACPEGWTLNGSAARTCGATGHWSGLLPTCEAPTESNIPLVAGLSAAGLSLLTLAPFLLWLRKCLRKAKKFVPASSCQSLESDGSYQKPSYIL
The assay is described as follows: plate coated with chimera; adhesion of CHO:E-selectin cells (FIG. 17). As to the method: (§1) Quantitative adhesion of CHO:P-selectin, CHO:E-selectin and CHO:L-selectin expressing cells was performed as described in Example 4(c), with the following modifications: COS cell and antibodies were omitted. Instead, 48-well microtiter plates (Costar) were coated for 16 hours at 4° C. with varying quantities of protein A-purified soluble PSGL-1/Fc chimeras. The unbound material was removed and the coated wells were treated with Hank's buffered saline (HBS) with 1 mg/ml BSA and 2 mM CaCl_2 for 1 hour at 4° C. Tritium labeled CHO selectin expressing cells were added and binding quantitated as described in Example 4(c).

For assay [3], the target named is T1, P-selectin expressed on the surface of …. In words: plate coated with chimera; adhesion of CHO:P-selectin cells (FIG. 17). The protocol:
as §1

Assay [4] deals with T3, E-selectin/IgG chimera of Example 9 (human) (UniProt P16581).
T3 sequence (looked up): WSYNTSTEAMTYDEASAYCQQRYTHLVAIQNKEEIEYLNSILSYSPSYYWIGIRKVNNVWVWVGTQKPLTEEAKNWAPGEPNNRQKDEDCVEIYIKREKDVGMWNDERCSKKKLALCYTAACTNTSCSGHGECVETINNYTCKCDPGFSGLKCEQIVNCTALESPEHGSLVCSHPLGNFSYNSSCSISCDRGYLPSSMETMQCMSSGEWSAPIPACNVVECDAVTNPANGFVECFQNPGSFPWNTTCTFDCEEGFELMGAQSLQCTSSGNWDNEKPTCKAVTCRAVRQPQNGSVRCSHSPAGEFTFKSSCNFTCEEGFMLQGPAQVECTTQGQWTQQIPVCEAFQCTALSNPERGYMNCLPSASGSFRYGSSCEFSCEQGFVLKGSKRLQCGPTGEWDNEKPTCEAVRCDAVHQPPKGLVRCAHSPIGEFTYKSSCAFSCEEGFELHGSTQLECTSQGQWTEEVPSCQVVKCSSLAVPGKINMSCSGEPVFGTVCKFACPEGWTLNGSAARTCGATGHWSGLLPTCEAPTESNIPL
The assay is described as follows: affinity capture on E-selectin/IgG chimera protein A sepharose, EDTA elution, scintillation counting.

Assay [5] addresses T4, LEC-γ1, chimeric form of P-selectin conjugated to the Fc portion of a human IgGγ1 (human, UniProt P16109 42-771).
T4 construct: extracellular domain; Built by known methods (Aruffo et al. 1991), made in CHO DUKX cells; also called P-selectin/IgG chimera; P-selectin/Fc chimera; not shown: Fc portion of a human IgGγ1
T4 sequence (looked up): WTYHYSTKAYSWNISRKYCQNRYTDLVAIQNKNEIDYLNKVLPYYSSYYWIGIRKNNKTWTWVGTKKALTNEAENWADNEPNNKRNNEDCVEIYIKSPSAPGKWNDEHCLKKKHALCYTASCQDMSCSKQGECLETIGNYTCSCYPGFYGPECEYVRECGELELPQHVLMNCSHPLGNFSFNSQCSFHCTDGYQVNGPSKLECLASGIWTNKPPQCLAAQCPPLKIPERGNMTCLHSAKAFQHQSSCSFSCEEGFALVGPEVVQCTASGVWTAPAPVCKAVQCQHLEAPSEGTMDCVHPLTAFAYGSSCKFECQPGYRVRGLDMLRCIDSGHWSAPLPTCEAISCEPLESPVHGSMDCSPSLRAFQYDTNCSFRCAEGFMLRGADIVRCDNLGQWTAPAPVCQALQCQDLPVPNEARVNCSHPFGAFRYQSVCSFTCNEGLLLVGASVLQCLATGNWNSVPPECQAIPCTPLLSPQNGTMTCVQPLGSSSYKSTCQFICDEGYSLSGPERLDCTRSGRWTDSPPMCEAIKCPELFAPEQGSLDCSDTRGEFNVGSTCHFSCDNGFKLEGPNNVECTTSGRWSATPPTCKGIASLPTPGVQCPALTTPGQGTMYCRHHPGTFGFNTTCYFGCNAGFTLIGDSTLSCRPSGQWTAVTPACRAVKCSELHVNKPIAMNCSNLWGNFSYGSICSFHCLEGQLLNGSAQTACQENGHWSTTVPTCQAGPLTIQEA
In words: affinity capture on P-selectin/IgG chimera protein A sepharose, EDTA elution, scintillation counting. As to the method: U937 cells (approximately 6.5 ×10^7) were recovered from tissue culture plates and divided equally into two 50 mL cultures (final concentration of […]) containing fresh complete RPMI medium and 50 µCi/ml of ^3H-glucosamine hydrochloride (labels the protein-linked carbohydrate of glycoproteins [Varki, FASEB 5:226-235 (1991)]. After 48 hours incubation, the cells from both cultures were recovered by centrifugation and washed three times with PBS. The pelleted cells were suspended in 2.5 mL each of a lysis buffer containing 1% Triton X-100 and disrupted by probe sonication for two minutes. The detergent lysates were placed on ice for three hours and then resonicated for an additional two minutes. The lysates were centrifuged at 16,000 rpm for five minutes, the supernatants were recovered and each adjusted to 12 mL with lysis buffer containing no detergent. […]
Following incubation, the two parallel reaction mixtures were each centrifuged at 2,000 rpm and supernatants were discarded. […] A final 1 mL pre-elution wash of each resin pellet using buffer containing 0.01% Triton X-100 was conducted and these were retained for quantitation of radioactive counts by liquid scintillation counting (LSC). […] The supernatants were recovered by centrifugation and then quantitated by LSC.

The text below walks through data of US7563760 (GENETICS INSTITUTE, dated 2009).

No end group written: not given here.

B1: full-length P-selectin ligand protein (PSGL-1, pMT21:PL85) expressed with fucosylation (COS or CHO cells with 3/4FT, or LEC11 cells) (ligand)
chain: QATEYEYLDYDFLPETEPPEMLRNSTDTTPLTGPGTPESTTVEPAARRSTGLDAGGAVTELTTELANMGNLSTDSAAMEIQTTQPAATEAQTTPLAATEAQTTRLTATEAQTTPLAATEAQTTPPAATEAQTTQPTGLEAQTTAPAAMEAQTTAPAAMEAQTTPPAAMEAQTTQTTAMEAQTTAPEATEAQTTQPTATEAQTTPLAAMEALSTEPSATEALSMEPTTKRGLFIPFSVSSVTHKGIPMAASNLSVNYPVGAPDHISVKQCLLAILILALVATIFFVCTVVLAVRLSRKGHMYPVRNYSPTEMVCISSLLPDGGEGPSATANGGLSKAKSPGLTPEPREDREGDDLTLHSFLP
modifications: glycosylated; co-expressed with (α1,3/α1,4) fucosyltransferase (3/4FT) or made in SLex-positive LEC11 cells
notes: Encoded as amino acids 1-402; In blots and immunoprecipitations it stood as a membrane detergent extract; also called PSL; CD-PSGL-1 (R3.4) product
Turning to B1, the “fold binding of CHO:P-selectin cells relative to COS mock cells” value in assay [1] was around 5.4 fold.

B2: 47.Fc of Example 10, amino acids 42-88 of SEQ ID NO:2 fused to IgG Fc (Fc fusion)
chain: QATEYEYLDYDFLPETEPPEMLRNSTDTTPLTGPGTPESTTVEPAAR
modifications: not fully specified (C-terminus); also: glycosylated, co-expressed with 3/4FT, sites not given here
notes: also called pED.47.Fc product; not shown: NotI junction/linker of pED.Fc; Fc region of a human IgG1 from pED.PSL.Fc
For B2, the binding result in assay [2] and in assay [3] was “binds” in each case.

B3: native PSGL-1 of U937 cells (major glycoprotein captured from detergent extracts) (ligand, human, UniProt Q14242 42-412, looked up)
chain: QATEYEYLDYDFLPETEPPEMLRNSTDTTPLTGPGTPESTTVEPAARRSTGLDAGGAVTELTTELANMGNLSTDSAAMEIQTTQPAATEAQTTQPVPTEAQTTPLAATEAQTTRLTATEAQTTPLAATEAQTTPPAATEAQTTQPTGLEAQTTAPAAMEAQTTAPAAMEAQTTPPAAMEAQTTQTTAMEAQTTAPEATEAQTTQPTATEAQTTPLAAMEALSTEPSATEALSMEPTTKRGLFIPFSVSSVTHKGIPMAASNLSVNYPVGAPDHISVKQCLLAILILALVATIFFVCTVVLAVRLSRKGHMYPVRNYSPTEMVCISSLLPDGGEGPSATANGGLSKAKSPGLTPEPREDREGDDLTLHSFLP
modifications: native myeloid glycosylation, 3H-glucosamine labelled
notes: 200-220 kD non-reduced, 100-120 kD reduced; also called U937 ligand; major U937 glycoprotein
For B3, the radiolabel in the EDTA eluate relative to the final pre-EDTA wash in assay [4] was above 10 fold; in assay [5] it was at least 10 fold.
